Source: patent US20240301385, “DNA MODIFYING ENZYMES AND ACTIVE FRAGMENTS AND VARIANTS THEREOF AND METHODS OF USE” (LIFEEDIT THERAPEUTICS, INC., published 2024)

Assays:
[1] = target: nAPG07433.1-APG05840 (synthetic); test: cell_activity; HEK293FT; C>G predominant; PAM SEQ 152; details: tags: SV40 NLS, 3xFLAG N-term; nucleoplasmin NLS C-term
[2] = target: T1, nAPG07433.1-APG09980 (synthetic); test: as above; details: tags: SV40 NLS, 3xFLAG N-term; nucleoplasmin NLS C-term
T1 chain: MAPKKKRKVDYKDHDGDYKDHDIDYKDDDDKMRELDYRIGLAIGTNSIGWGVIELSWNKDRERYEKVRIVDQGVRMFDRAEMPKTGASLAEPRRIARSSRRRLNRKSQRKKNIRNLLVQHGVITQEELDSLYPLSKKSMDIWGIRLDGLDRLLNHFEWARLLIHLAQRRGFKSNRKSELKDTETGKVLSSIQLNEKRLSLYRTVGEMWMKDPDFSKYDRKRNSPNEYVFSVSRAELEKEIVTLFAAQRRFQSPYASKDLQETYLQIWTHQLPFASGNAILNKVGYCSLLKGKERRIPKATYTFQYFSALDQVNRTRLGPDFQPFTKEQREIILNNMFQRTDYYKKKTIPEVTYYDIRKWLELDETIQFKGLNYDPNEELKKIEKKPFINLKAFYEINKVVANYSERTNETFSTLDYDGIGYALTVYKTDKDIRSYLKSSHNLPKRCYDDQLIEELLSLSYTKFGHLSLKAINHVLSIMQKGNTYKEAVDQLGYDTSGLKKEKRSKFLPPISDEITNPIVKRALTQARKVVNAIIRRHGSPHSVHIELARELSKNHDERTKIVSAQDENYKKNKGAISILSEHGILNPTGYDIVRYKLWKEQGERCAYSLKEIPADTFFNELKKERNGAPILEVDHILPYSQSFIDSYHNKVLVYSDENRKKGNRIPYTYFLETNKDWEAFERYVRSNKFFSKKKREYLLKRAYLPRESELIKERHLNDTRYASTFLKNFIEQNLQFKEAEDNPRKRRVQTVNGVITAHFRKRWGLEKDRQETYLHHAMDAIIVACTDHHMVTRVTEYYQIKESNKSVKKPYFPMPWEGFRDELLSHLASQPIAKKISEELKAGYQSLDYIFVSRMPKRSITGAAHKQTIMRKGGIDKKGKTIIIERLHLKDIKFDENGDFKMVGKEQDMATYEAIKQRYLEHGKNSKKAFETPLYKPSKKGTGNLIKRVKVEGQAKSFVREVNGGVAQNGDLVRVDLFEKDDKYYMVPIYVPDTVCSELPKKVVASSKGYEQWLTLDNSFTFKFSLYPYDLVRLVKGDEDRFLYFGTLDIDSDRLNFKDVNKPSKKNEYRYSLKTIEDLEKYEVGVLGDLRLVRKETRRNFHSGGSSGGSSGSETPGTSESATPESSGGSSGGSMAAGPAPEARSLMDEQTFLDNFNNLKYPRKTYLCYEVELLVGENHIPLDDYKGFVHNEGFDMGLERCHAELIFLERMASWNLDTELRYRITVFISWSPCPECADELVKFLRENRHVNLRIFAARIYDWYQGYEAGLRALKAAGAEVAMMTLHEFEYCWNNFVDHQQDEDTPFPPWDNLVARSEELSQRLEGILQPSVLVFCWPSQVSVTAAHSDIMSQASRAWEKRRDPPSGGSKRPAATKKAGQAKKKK

B1: SGN000930 sgRNA ; SGN000930 target (ssRNA ; dsDNA)
RNA: GAACAACUCAAAUGGAAAUGAAUAUGUCAUAGUUCCAUGAAAGCCAAAAGUGGCUUUGAUGUUUCUAUGAUAAGGGUUUCGGCCCGUGGCGUCGGGGAUCGCCUGCCCAUUCCGAUGGGCUUCUCCCCAUUUAUU
DNA 1: GAACAACTCAAATGGAAATGAATAT
DNA 2: ATATTCATTTCCATTTGAGTTGTTC
In the case of B1, the activity [1] is reported as 17.5 % mutated reads and the activity [2] is reported as 18.4 % mutated reads.
